According to the supplement of paper PMC10567573:

B1: PHTF1 (parent)
chain: SRHLNSQVKKTTTRWCHIVRDSDS

Variants of: B1
Test: protein stability index of a GFP-peptide fusion (GPS, HEK-293T) (PSI 1-6); higher = more stable
Conditions: c terminus: a fixed tail appended
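Further: lentivirally expressed fusions sorted by FACS into six bins by GFP to DsRed ratio, PSI derived from sequencing read proportions per bin multiplied by bin number.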

Point of comparison: SRHLNSQVKKTTTRVCHIVRDSDS [W15V], protein stability index 3.06. Against it:
- SRHLNSQVKKTTTRWQHIVRDSDS [C16Q] — lower, 2.3
- SRHLNSQVKKTTTRWKHIVRDSDS [C16K] — lower, 2.99
- SRHLNSQVKKTTTRWYHIVRDSDS [C16Y] — lower, 2.56
- SRHLNSQVKKTTTRWRHIVRDSDS [C16R] — lower, 2.86
- SRHLNSQVKKTTTRWWHIVRDSDS [C16W] — lower, 2.27
- SRHLNSQVKKTTTRWDHIVRDSDS [C16D] — higher, 3.34
- SRHLNEQVKKTTTRWCHIVRDSDS [S6E] — lower, 2.31
- SRHLNNQVKKTTTRWCHIVRDSDS [S6N] — lower, 2.44
- SRHLNAQVKKTTTRWCHIVRDSDS [S6A] — lower, 2.29
- SRHLNMQVKKTTTRWCHIVRDSDS [S6M] — lower, 1.93
- SRHLNYQVKKTTTRWCHIVRDSDS [S6Y] — lower, 2.86
- SRHLNTQVKKTTTRWCHIVRDSDS [S6T] — lower, 1.83
- SRHLNLQVKKTTTRWCHIVRDSDS [S6L] — lower, 1.68
- SRHLNVQVKKTTTRWCHIVRDSDS [S6V] — lower, 1.94
- SRHLNSQVKKTTTRWCHNVRDSDS [I18N] — higher, 3.3
- SRHLNSQVKKTTTRWCHMVRDSDS [I18M] — lower, 2.34
- SRHLNSQVKKTTTRWCHGVRDSDS [I18G] — higher, 3.15
- SRHLNSQVKKTTTRWCHCVRDSDS [I18C] — lower, 2.13
- SRHLNSQVKKTTTRWCHDVRDSDS [I18D] — higher, 3.92
- SRHLNSQVKKTTTRWCHAVRDSDS [I18A] — lower, 2.43
- SRHLNSQVKKTTTRWCHKVRDSDS [I18K] — lower, 2.77
- SRHLNSQVKKTTTRWCHQVRDSDS [I18Q] — higher, 3.09
- SRHLNSQVKKTTTRWCHPVRDSDS [I18P] — higher, 3.35
- SRHLNSQVKKTTTRWCHFVRDSDS [I18F] — lower, 2.82
- SRHLNSQVKFTTTRWCHIVRDSDS [K10F] — lower, 1.78
- SRHLNSQVKYTTTRWCHIVRDSDS [K10Y] — lower, 1.69
- SRHLNSQVKHTTTRWCHIVRDSDS [K10H] — lower, 2.29
- SRHLNSQVKWTTTRWCHIVRDSDS [K10W] — lower, 1.97
- SRHLNSQVKRTTTRWCHIVRDSDS [K10R] — lower, 1.8
- SRHLNSQVKATTTRWCHIVRDSDS [K10A] — lower, 2.76
- SRHLNSQVKKTTTRWCHIVRDSDL [S24L] — lower, 1.75
- SRHLNSQVKKTTTRWCHIVRDSDQ [S24Q] — lower, 2.02
- SRHLNSQVKKTTTRWCHIVRDSDE [S24E] — lower, 1.9
- SRHLNSQVKKTTTRWCHIVRDSDD [S24D] — lower, 2.75
- SRHLNSQVKKTTTRWCHIVRDSDW [S24W] — lower, 1.79
- SRHLNSQVKKTTTRWCHIVRDSNS [D23N] — lower, 1.99
- SRHLNSQVKKTTTRWCHIVRDSIS [D23I] — lower, 2.16
- SRHLNSQVKKTTTRWCHIVRDSRS [D23R] — lower, 2.8
- SRHLNSQVKKTTTRWCHIVRDSFS [D23F] — lower, 2.65
- SRHLNSQVKKTTTRWCHIVRDSHS [D23H] — lower, 2.34
- SRHLNSQVKKTTTRWCHIVRDSSS [D23S] — higher, 3.1
- SRHLNSQVKKTTTRWCHIVRDSTS [D23T] — lower, 1.78
- SRHLNSQVKKTTTRWCHIVRDSAS [D23A] — lower, 2.59
- SRHLNSQVKKTTTRWCHIVRDSMS [D23M] — lower, 2.19
- SRHLNSQVKKTTTRWCHIVRDSES [D23E] — lower, 1.99
- SRHLNSQVKKTTTRWCHIVRDSCS [D23C] — lower, 1.53
- SRHLNSQVKKTTTRSCHIVRDSDS [W15S] — higher, 3.84
- SRHLNSQVKKTTTRICHIVRDSDS [W15I] — higher, 3.36
- SRHLNSQVKKTTTRFCHIVRDSDS [W15F] — higher, 3.71
- SRHLNSQVKKTTTRKCHIVRDSDS [W15K] — higher, 3.78
- SRHLNSQVKKTTTRTCHIVRDSDS [W15T] — higher, 3.87
- PRHLNSQVKKTTTRWCHIVRDSDS [S1P] — lower, 2.47
- LRHLNSQVKKTTTRWCHIVRDSDS [S1L] — lower, 1.51
- GRHLNSQVKKTTTRWCHIVRDSDS [S1G] — lower, 2.06
- MRHLNSQVKKTTTRWCHIVRDSDS [S1M] — lower, 2.52
- ARHLNSQVKKTTTRWCHIVRDSDS [S1A] — lower, 2.52
- QRHLNSQVKKTTTRWCHIVRDSDS [S1Q] — lower, 2.38
- HRHLNSQVKKTTTRWCHIVRDSDS [S1H] — lower, 1.46
- RRHLNSQVKKTTTRWCHIVRDSDS [S1R] — lower, 2.51
- TRHLNSQVKKTTTRWCHIVRDSDS [S1T] — lower, 2.09
- CRHLNSQVKKTTTRWCHIVRDSDS [S1C] — lower, 2.07
- SRHLNSQVKKTTTRWCHIVRTSDS [D21T] — lower, 2.79
- SRHLNSQVKKTTTRWCHIVRYSDS [D21Y] — lower, 1.69
- SRHLNSQVKKTTTRWCHIVRSSDS [D21S] — lower, 2.14
- SRHLNSQVKKTTTRWCHIVRWSDS [D21W] — lower, 2.23
- SRHLNSQVKKTTTRWCHIVRGSDS [D21G] — lower, 1.7
- SRHLNSQVKKTTTRWCHIVRASDS [D21A] — lower, 2.5
- SRHLNSQVSKTTTRWCHIVRDSDS [K9S] — lower, 2.26
- SRHLNSQVGKTTTRWCHIVRDSDS [K9G] — lower, 2.55
- SRHLNSQVQKTTTRWCHIVRDSDS [K9Q] — lower, 2.02
- SRHLNSQVEKTTTRWCHIVRDSDS [K9E] — lower, 2.33
- SRHLNSQVHKTTTRWCHIVRDSDS [K9H] — lower, 1.81
- SRHLNSQVFKTTTRWCHIVRDSDS [K9F] — lower, 1.83
- SRHLNSQVRKTTTRWCHIVRDSDS [K9R] — lower, 2.16
- SRHLNSQVKKTKTRWCHIVRDSDS [T12K] — lower, 1.82
- SRHLNSQVKKTSTRWCHIVRDSDS [T12S] — lower, 2.62
- SRHLNSQVKKTYTRWCHIVRDSDS [T12Y] — lower, 1.5
- SRHLNSQVKKTFTRWCHIVRDSDS [T12F] — lower, 1.66
- SRHLNSQVKKTATRWCHIVRDSDS [T12A] — lower, 2.1
- SRHLNSQVKKTVTRWCHIVRDSDS [T12V] — lower, 1.94
- SRHLNSQVKKTMTRWCHIVRDSDS [T12M] — lower, 1.76
- SRHLNSQVKKTCTRWCHIVRDSDS [T12C] — lower, 2.19
- SRHLNSQVKKTPTRWCHIVRDSDS [T12P] — lower, 2.71
- SRHLNSQVKKTGTRWCHIVRDSDS [T12G] — lower, 1.64
- SRHLNSQVKKTHTRWCHIVRDSDS [T12H] — lower, 1.31
- SRWLNSQVKKTTTRWCHIVRDSDS [H3W] — lower, 1.53
- SRTLNSQVKKTTTRWCHIVRDSDS [H3T] — lower, 2.23
- SRDLNSQVKKTTTRWCHIVRDSDS [H3D] — lower, 1.58
- SRSLNSQVKKTTTRWCHIVRDSDS [H3S] — lower, 1.5
- SRRLNSQVKKTTTRWCHIVRDSDS [H3R] — lower, 1.79
- SCHLNSQVKKTTTRWCHIVRDSDS [R2C] — lower, 2.12
- SVHLNSQVKKTTTRWCHIVRDSDS [R2V] — lower, 1.87
- SNHLNSQVKKTTTRWCHIVRDSDS [R2N] — lower, 1.87
